Among the data in article PMC5670216, “In vitro selections of mammaglobin A and mammaglobin B aptamers for the recognition of circulating breast tumor cells” are Kd values, retold here.

The target of data set [1] is T1, Mammaglobin B (MGB2), recombinant (UniProt O75556 19-95).
T1 sequence: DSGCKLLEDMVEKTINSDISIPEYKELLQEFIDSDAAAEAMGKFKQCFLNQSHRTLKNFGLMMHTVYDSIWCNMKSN
The data set can be described thus: EMSA; aptamer 600 nM, protein 0-220 nM; unit implied by nM axis; EMSA: 50 mM Tris-HCl, 10 mM reduced glutathione, pH 8.0, 1 h at 37 C, 8% native PAGE; transfected-cell flow cytometry: PBS, 5 mM MgCl2, 4 C, 30 min, formaldehyde-fixed cells. Conditions: tags: GST (stated for the SELEX protein). For orientation: Mobility shift assays separate free from complexed probe on a gel.

For data set [2], the target named is Mammaglobin A (MGB1), recombinant (UniProt Q13296 19-93). The data set is described as above. Conditions: tags: GST (stated for the SELEX protein).
Sequence of Mammaglobin A (MGB1), recombinant (Q13296 19-93): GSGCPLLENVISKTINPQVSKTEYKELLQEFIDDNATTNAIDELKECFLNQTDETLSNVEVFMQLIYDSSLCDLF

B1: MAMB1 (ssDNA)
DNA: CATGCTTACCTATAGTGAACCCAACGTCGAACTGAATCCCGTGTCCTTTGAGAACTGACTCATAC
Consider B1, for which, in data set [1], the Kd (usually the free concentration of one partner at which half of the binding sites on the other are occupied at equilibrium, for simple one-to-one binding) is 95 ± 7 nM.

B2: MAMA2 (ssDNA)
DNA: CATGCTTACCTATAGTGAACCCGGGACAGAACGTGCGCTTTGAGCTTTGAGAACTGACTCATAC
Consider B2, for which, in data set [2], the Kd was determined as 88 ± 6 nM.
